T1: RHPN1, Q8TCX5
T1 sequence (Q8TCX5 508-602, limits assumed, looked up): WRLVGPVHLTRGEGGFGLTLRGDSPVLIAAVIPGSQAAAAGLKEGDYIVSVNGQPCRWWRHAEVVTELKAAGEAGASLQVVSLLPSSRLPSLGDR

T2: GRIP1_3, Q9Y3R0
T2 sequence (Q9Y3R0 247-346, limits assumed, looked up): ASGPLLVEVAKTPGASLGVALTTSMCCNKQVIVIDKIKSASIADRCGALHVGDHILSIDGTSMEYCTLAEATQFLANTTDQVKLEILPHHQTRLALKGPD

T3: MPDZ_12, O75970
T3 sequence (O75970 1857-1958, limits assumed, looked up): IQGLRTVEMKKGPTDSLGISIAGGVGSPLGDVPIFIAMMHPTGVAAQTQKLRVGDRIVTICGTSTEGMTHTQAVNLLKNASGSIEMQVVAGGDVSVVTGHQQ

T4: LRRC7, Q96NW7
T4 sequence (Q96NW7 1440-1537, limits assumed, looked up): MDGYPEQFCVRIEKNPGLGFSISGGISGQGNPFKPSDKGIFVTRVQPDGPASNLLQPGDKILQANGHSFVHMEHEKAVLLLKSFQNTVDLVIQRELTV

T5: CARD11, Q9BXL7
T5 sequence (Q9BXL7 662-765, limits assumed, looked up): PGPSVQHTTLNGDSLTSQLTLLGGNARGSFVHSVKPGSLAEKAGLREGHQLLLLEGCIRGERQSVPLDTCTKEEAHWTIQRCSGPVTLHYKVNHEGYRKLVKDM

T6: HTRA3, P83110
T6 sequence (P83110 354-453, limits assumed, looked up): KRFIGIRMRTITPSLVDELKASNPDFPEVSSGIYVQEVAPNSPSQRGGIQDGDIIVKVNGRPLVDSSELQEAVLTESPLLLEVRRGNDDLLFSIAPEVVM

T7: LNX2_3, Q8N448
T7 sequence (Q8N448 463-564, limits assumed, looked up): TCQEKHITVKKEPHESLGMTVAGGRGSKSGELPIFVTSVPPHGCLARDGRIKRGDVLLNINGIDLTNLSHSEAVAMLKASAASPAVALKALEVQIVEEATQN

T8: ARHGEF11, O15085
T8 sequence (O15085 42-136, limits assumed, looked up): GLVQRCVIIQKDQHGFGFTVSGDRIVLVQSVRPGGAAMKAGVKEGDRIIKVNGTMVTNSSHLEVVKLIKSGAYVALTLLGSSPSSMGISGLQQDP

T9: GRIP1_7, Q9Y3R0
T9 sequence (Q9Y3R0 999-1096, limits assumed, looked up): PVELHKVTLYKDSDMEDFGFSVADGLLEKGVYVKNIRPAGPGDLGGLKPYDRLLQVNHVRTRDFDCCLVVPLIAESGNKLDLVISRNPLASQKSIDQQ

T10: DVL3, Q92997
T10 sequence (Q92997 244-331, limits assumed, looked up): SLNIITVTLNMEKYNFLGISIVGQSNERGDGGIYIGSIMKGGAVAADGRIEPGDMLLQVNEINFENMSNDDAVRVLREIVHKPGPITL


Tests used:
Experiment in all cases: holdup assay
Parameters in all cases: key: below the threshold = too weak to quantify, mostly under pKd 3.1 to 4
Details in all cases: plain residues with an end cap or a label only (N-terminal biotin on a linker: ado-ado)
RHPN1, Q8TCX5 = molecular target: T1, RHPN1, Q8TCX5
NHERF4_4, Q86UT5 = molecular target: NHERF4_4, Q86UT5
Chain of NHERF4_4, Q86UT5 (Q86UT5 464-550): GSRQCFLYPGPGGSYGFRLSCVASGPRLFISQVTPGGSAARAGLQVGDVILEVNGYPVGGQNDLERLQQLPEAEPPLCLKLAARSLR

GRIP1_3, Q9Y3R0 = molecular target: T2, GRIP1_3, Q9Y3R0
MPDZ_12, O75970 = molecular target: T3, MPDZ_12, O75970
DLG5_1, Q8TDM6 = molecular target: DLG5_1, Q8TDM6
Chain of DLG5_1, Q8TDM6 (Q8TDM6 617-713): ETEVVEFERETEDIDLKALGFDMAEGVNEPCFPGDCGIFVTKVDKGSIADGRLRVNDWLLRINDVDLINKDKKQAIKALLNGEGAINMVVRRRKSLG

LRRC7, Q96NW7 = molecular target: T4, LRRC7, Q96NW7
LNX1_1, Q8TBB1 = molecular target: LNX1_1, Q8TBB1
Chain of LNX1_1, Q8TBB1 (Q8TBB1 261-371): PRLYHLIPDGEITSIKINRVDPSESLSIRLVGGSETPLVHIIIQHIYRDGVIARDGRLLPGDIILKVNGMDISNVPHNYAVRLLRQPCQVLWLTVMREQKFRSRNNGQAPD

GIPC2, Q8TF65 = molecular target: GIPC2, Q8TF65
Chain of GIPC2, Q8TF65 (Q8TF65 112-203): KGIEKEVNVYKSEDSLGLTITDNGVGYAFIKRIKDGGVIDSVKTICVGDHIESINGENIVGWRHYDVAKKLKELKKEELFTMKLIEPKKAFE

CARD11, Q9BXL7 = molecular target: T5, CARD11, Q9BXL7
GRIP2_5, Q9C0E4 = molecular target: GRIP2_5, Q9C0E4
Chain of GRIP2_5, Q9C0E4 (Q9C0E4 544-642): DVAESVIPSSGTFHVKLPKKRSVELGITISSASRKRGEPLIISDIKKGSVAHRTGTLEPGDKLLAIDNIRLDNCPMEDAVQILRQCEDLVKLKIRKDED

HTRA3, P83110 = molecular target: T6, HTRA3, P83110
SCRIB_1, Q14160 = molecular target: SCRIB_1, Q14160
Chain of SCRIB_1, Q14160 (Q14160 718-814): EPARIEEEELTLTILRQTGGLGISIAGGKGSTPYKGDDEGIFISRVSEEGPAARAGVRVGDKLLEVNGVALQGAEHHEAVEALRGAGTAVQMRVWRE

NHERF4_2, Q86UT5 = molecular target: NHERF4_2, Q86UT5
Chain of NHERF4_2, Q86UT5 (Q86UT5 220-308): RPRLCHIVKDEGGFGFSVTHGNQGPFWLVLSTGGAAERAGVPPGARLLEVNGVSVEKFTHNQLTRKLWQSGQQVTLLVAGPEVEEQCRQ

Inadl_10, Q8NI35 = molecular target: Inadl_10, Q8NI35
Chain of Inadl_10, Q8NI35 (Q8NI35 1673-1763): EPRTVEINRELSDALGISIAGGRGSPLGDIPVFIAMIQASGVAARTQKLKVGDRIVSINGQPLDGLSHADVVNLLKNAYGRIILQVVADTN

MAGI1_2, Q96QZ7 = molecular target: MAGI1_2, Q96QZ7
Chain of MAGI1_2, Q96QZ7 (Q96QZ7 456-580): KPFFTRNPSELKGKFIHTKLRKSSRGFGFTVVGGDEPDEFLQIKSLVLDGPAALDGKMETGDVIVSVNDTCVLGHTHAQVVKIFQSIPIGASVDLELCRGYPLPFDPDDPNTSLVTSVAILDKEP

GRASP, Q7Z6J2 = molecular target: GRASP, Q7Z6J2
Chain of GRASP, Q7Z6J2 (Q7Z6J2 96-193): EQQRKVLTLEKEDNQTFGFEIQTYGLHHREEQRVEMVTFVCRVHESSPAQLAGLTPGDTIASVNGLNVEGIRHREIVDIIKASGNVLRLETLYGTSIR

NHERF4_1, Q86UT5-2 = molecular target: NHERF4_1, Q86UT5-2
Chain of NHERF4_1, Q86UT5-2 (Q86UT5 other isoform, or with tags, fused parts or gaps): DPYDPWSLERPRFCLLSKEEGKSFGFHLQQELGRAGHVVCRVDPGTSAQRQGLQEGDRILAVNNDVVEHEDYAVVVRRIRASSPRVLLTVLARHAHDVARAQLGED

LNX2_3, Q8N448 = molecular target: T7, LNX2_3, Q8N448
TJP1_3, Q07157 = molecular target: TJP1_3, Q07157
Chain of TJP1_3, Q07157 (Q07157 416-512): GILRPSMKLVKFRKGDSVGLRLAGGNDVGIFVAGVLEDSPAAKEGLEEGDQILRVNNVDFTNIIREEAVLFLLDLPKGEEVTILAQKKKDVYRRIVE

PDZRN4_1, Q6ZMN7 = molecular target: PDZRN4_1, Q6ZMN7
Chain of PDZRN4_1, Q6ZMN7 (Q6ZMN7 213-318): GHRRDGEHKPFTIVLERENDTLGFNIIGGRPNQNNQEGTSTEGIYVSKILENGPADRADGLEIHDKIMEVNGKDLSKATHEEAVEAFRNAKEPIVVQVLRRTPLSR

MAGI2_3, Q86UL8 = molecular target: MAGI2_3, Q86UL8
Chain of MAGI2_3, Q86UL8 (Q86UL8 600-682): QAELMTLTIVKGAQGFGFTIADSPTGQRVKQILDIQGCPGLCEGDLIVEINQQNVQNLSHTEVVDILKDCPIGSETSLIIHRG

LDB3, O75112 = molecular target: LDB3, O75112
Chain of LDB3, O75112 (O75112 1-94): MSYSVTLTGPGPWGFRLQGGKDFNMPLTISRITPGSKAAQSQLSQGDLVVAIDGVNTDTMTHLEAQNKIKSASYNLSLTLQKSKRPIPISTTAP

TJP1_2, Q07157 = molecular target: TJP1_2, Q07157
Chain of TJP1_2, Q07157 (Q07157 181-274): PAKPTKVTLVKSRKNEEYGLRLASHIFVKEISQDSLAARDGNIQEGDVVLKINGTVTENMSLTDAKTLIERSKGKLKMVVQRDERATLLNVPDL

ARHGEF11, O15085 = molecular target: T8, ARHGEF11, O15085
GRIP1_7, Q9Y3R0 = molecular target: T9, GRIP1_7, Q9Y3R0
DVL3, Q92997 = molecular target: T10, DVL3, Q92997
LNX1_3, Q8TBB1 = molecular target: LNX1_3, Q8TBB1
Chain of LNX1_3, Q8TBB1 (Q8TBB1 500-596): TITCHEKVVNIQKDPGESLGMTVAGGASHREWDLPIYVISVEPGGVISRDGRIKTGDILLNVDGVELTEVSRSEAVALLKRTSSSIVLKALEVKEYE

IL16_1, Q14005 = molecular target: IL16_1, Q14005
Chain of IL16_1, Q14005 (Q14005 210-306): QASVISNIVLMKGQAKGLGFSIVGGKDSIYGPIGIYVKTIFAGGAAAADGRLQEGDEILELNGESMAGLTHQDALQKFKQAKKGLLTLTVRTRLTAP

Binder | pKd (RHPN1, Q8TCX5) | pKd (NHERF4_4, Q86UT5) | pKd (GRIP1_3, Q9Y3R0) | pKd (MPDZ_12, O75970) | pKd (DLG5_1, Q8TDM6) | pKd (LRRC7, Q96NW7) | pKd (LNX1_1, Q8TBB1) | pKd (GIPC2, Q8TF65) | pKd (CARD11, Q9BXL7) | pKd (GRIP2_5, Q9C0E4) | pKd (HTRA3, P83110) | pKd (SCRIB_1, Q14160) | pKd (NHERF4_2, Q86UT5) | pKd (Inadl_10, Q8NI35) | pKd (MAGI1_2, Q96QZ7) | pKd (GRASP, Q7Z6J2) | pKd (NHERF4_1, Q86UT5-2) | pKd (LNX2_3, Q8N448) | pKd (TJP1_3, Q07157) | pKd (PDZRN4_1, Q6ZMN7) | further results
IPGKEFDTPL [PLCB1, Q9NQ66] | 3.65 | below the threshold | below the threshold | below the threshold | below the threshold | below the threshold | below the threshold | below the threshold | below the threshold | below the threshold | below the threshold | 3.93 | below the threshold | below the threshold | below the threshold | below the threshold | 3.56 | below the threshold | below the threshold | 4.3 | pKd (MAGI2_3, Q86UL8): below the threshold; pKd (LDB3, O75112): below the threshold; pKd (TJP1_2, Q07157): below the threshold; pKd (ARHGEF11, O15085): below the threshold; pKd (GRIP1_7, Q9Y3R0): below the threshold; pKd (DVL3, Q92997): below the threshold; pKd (LNX1_3, Q8TBB1): below the threshold; pKd (IL16_1, Q14005): below the threshold
NLQEHSTTSV [RSBN1, Q5VWQ0] | 4.04 | below the threshold | below the threshold | below the threshold | below the threshold | below the threshold | below the threshold | below the threshold | below the threshold | below the threshold | below the threshold | 3.58 | below the threshold | below the threshold | 3.53 | 4.51 | below the threshold | below the threshold | below the threshold | below the threshold | pKd (MAGI2_3, Q86UL8): below the threshold; pKd (LDB3, O75112): below the threshold; pKd (TJP1_2, Q07157): below the threshold; pKd (ARHGEF11, O15085): 4.13; pKd (GRIP1_7, Q9Y3R0): below the threshold; pKd (DVL3, Q92997): below the threshold; pKd (LNX1_3, Q8TBB1): below the threshold; pKd (IL16_1, Q14005): below the threshold
DHLGGGGESM [TNRC6A, Q8NDV7] | below the threshold | below the threshold | below the threshold | below the threshold | below the threshold | below the threshold | below the threshold | below the threshold | below the threshold | below the threshold | below the threshold | below the threshold | below the threshold | below the threshold | below the threshold | below the threshold | below the threshold | below the threshold | below the threshold | below the threshold | pKd (MAGI2_3, Q86UL8): below the threshold; pKd (LDB3, O75112): below the threshold; pKd (TJP1_2, Q07157): below the threshold; pKd (ARHGEF11, O15085): below the threshold; pKd (GRIP1_7, Q9Y3R0): below the threshold; pKd (DVL3, Q92997): below the threshold; pKd (LNX1_3, Q8TBB1): below the threshold; pKd (IL16_1, Q14005): below the threshold

Source: paper PMC9482650, “Quantitative fragmentomics allow affinity mapping of interactomes” (Nature Communications, 2022)
